Test results as given in patent US20250313625A1 (ELPISCIENCE SUZHOU BIOPHARMA, published 2025).
Positions count from the first letter of the chain named. Names may count otherwise. Values belong to the binder of their own block, whether it stands above or below them.

Assays:
[1] = target: T1, human LAG3, full length, stably expressed on cells (human, UniProt P18627 23-525); assay: FACS on 293F cells stably expressing human LAG3
T1 construct: whole, on cells; also called CHOK1-human LAG3
T1 sequence (looked up): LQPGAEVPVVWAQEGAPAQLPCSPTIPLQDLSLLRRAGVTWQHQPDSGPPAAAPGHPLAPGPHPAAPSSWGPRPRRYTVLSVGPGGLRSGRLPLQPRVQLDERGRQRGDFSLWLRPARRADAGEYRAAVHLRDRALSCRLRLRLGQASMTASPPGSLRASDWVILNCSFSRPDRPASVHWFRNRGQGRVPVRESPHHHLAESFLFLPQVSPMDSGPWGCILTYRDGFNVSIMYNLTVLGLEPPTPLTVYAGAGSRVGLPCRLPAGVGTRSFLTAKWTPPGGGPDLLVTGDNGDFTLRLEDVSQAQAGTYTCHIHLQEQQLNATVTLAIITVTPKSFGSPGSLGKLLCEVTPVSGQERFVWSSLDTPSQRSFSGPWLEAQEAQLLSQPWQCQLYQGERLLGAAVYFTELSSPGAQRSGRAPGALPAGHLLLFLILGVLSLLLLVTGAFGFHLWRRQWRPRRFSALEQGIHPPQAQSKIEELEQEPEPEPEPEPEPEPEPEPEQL
Protocol: (§1) Briefly the antibodies were incubated with 2×10⁵ target cells at 4° C. for 1 hour. After washing, fluorescence labeled anti-mouse IgG 2nd antibody (Life Technologies) was added and incubated at 4° C. for 1 hour. Geometric median fluorescence intensity (MFI) was detected and EC₅₀ was calculated using GraphPad Prism9.0.
MFI was detected and EC₅₀ was calculated using GraphPad Prism9.0.

[2] = target: T2, mFc tagged human LAG3 ECD recombinant protein (human, UniProt P18627 23-450); assay: competitive FACS: mFc-LAG3 ECD binding to Raji cells (MHC II)
T2 construct: extracellular domain; purchased from Biointron; not shown: mouse IgG Fc (mFc) tag
T2 sequence (looked up): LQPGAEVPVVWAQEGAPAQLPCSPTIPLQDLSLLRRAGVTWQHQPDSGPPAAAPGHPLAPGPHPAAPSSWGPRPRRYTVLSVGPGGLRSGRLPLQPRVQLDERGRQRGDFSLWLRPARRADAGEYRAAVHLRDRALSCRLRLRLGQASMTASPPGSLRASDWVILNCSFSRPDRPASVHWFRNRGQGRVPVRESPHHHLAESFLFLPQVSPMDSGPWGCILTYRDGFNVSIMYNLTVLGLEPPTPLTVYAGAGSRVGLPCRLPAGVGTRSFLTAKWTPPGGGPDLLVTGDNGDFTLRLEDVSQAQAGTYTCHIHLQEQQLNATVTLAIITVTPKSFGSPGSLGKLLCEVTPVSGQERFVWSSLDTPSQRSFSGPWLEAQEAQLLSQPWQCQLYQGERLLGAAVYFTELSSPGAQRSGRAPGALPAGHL
Protocol: Activity of the purified chimeric antibodies to block LAG3 and MHC II interaction was determined by competitive FACS assay. […] After washing, dye labeled anti-mouse Fc 2nd antibody (Sigma) was added and incubated at 37° C. for 1 hour. Fluorescence intensity was detected.

[3] = target: T3, human LAG3 ECD recombinant protein (plate coated, tag not stated) (human, UniProt P18627 23-450); assay: competitive ELISA format I: His-FGL1 binding to coated LAG3 ECD
T3 construct: extracellular domain
T3 sequence (looked up): T2 sequence (looked up)
Protocol: After washing, HRP labeled anti-His 2nd antibody (Sigma) was added and incubated at 37° C. for 1 hour. Then, 100 μl/well of TMB solution (Biotechnology) was added. After incubation for 15 minutes at room temperature, the reaction was stopped by the addition of 50 μl of 1N HCl. OD 450 nm was read. […] After washing, HRP labeled anti-SA 2nd antibody (Sigma) was added and incubated at 37° C. for 1 hour. Then, 100 μl/well of TMB solution (Biotechnology) was added. After incubation for 15 minutes at room temperature, the reaction was stopped by the addition of 50 μl of 1N HCl. OD 450 nm was read. […] The competition assay of format III is a competitive FACS assay. […] After washing, dye labeled anti-His 2nd antibody (Sigma) was added and incubated at 37° C. for 1 hour. Fluorescence intensity was detected.

[4] = target: T4, hFc tagged human LAG3 D1-D2 recombinant protein (human, UniProt P18627 23-261); assay: ELISA, coated hFc-hLAG3 D1-D2
T4 construct: range 23-261; generated by Chempartner; also called hLAG3 D1-D2; not shown: human IgG Fc tag
T4 sequence (looked up): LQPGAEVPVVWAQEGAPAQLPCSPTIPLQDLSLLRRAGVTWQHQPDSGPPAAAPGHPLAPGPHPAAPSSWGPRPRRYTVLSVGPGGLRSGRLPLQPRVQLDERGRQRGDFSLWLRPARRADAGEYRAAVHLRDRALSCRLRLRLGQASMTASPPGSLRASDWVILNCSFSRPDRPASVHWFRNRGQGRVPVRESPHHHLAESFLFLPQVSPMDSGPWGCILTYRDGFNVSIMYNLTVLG
Protocol: Binding activity of the purified hybridoma antibodies against human LAG3 was detected by ELISA assay using hFc tagged human LAG3 D1-D2 recombinant protein. Briefly the antibodies were incubated with ELISA microplate coated antigens at 37° C. for 1 hour. After washing, horseradish peroxidase (HRP) labeled anti-human IgG 2nd Ab (Sigma) was added and incubated at 37° C. for 1 hour. Then, 100 μl/well of TMB solution (Biotechnology) was added. After incubation for 15 minutes at room temperature, the reaction was stopped by the addition of 50 μl of 1N HCl. OD 450 nm was read and EC₅₀ was calculated using GraphPad Prism9.0.

[5] = target: T1, human LAG3, full length, stably …; assay: FACS on 293F-human LAG3 cells
Protocol: as §1

[6] = target: T5, mouse LAG3, full length, stably expressed on CHOK1 cells (mouse, UniProt Q61790 24-521); assay: FACS on CHOK1 cells expressing mouse LAG3
T5 construct: whole, on cells
T5 sequence (looked up): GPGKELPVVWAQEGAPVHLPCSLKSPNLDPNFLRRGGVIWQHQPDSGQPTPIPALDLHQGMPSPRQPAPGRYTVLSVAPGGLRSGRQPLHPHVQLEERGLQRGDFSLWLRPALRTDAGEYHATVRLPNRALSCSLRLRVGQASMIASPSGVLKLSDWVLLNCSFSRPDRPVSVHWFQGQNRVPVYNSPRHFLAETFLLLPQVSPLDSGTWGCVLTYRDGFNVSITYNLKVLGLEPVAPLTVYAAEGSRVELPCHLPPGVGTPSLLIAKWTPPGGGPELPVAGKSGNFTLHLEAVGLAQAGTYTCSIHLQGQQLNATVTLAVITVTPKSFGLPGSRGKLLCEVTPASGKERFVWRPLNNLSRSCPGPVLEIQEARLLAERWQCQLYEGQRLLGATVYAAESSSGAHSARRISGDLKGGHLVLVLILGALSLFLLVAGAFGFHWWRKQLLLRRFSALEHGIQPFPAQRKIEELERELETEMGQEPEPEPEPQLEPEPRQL
Protocol: as §1

[7] = target: T6, hFc tagged human LAG3 ECD recombinant protein (human, UniProt P18627 23-450); assay: competitive FACS: hFc-LAG3 ECD binding to Raji cells (MHC II)
T6 construct: range 23-450; also called biotin labelled hFc tagged human LAG3 ECD; not shown: human IgG Fc tag
T6 sequence (looked up): T2 sequence (looked up)
Protocol: Competitive FACS assay was used to determine whether the purified hybridoma antibodies can block LAG3 and MHC II interaction. […] After washing, dye labeled anti-human Fc 2nd antibody (Sigma) was added and incubated at 37° C. for 1 hour. Fluorescence intensity was detected.

[8] = target: T6, hFc tagged human LAG3 ECD recombinant …; assay: competitive ELISA: excess competitor, biotin hFc-LAG3 ECD, coated BAP-050
Protocol: (§2) Competitive ELISA assay was used for epitope binning of the purified hybridoma antibodies. […] After washing, HRP labeled anti-streptavidin (SA) 2nd antibody (Sigma) was added and incubated at 37° C. for 1 hour. Then, 100 μl/well of TMB solution (Biotechnology) was added. After incubation for 15 minutes at room temperature, the reaction was stopped by the addition of 50 μl of 1N HCl. OD 450 nm was read. Competition ratio was calculated.

[9] = target: T6, hFc tagged human LAG3 ECD recombinant …; assay: competitive ELISA: excess competitor, biotin hFc-LAG3 ECD, coated BMS-986016
Protocol: as §2

B1: 015c (antibody, human IgG4, V domains shown)
VH: EVQLQQSGPVLVKPGASVKLSCKASGFTFTDYYMNWVKLSHGKSLEWIGVINPFNGDTAYKQKFKGKATLTVDKSSSTAYMELNSLTSEDSAVYYCARDDGYYLYYFDSWGQGTTLTVSS
VL: DIQMTQSPSSLSASLGERVSLTCRASQDIGSRLNWLQQEPDGTIKRLIYATSSLDSGVPKRFSGSRSGSDYSLTISSLDSEDFVVYYCLQYASSPPTFGAGTKLELK
notes: human IgG4 S228P / kappa chimeric antibody; also called chimeric antibody 015; not shown: human kappa light chain constant region (pcDNA3.4-hIgGk vector)
EC50 [1]: 1.9 nM
TOP MFI [1]: 296
IC50 [2]: 5.4 nM
TOP blocking (%) [2]: 77.1%
Blocking ratio at 66.7 nM (%) [3]: 43.6%

B2: 035c (antibody, human IgG4, V domains shown)
VH: QVQLQQSGAELARPGASVKLSCKASGYSFTSYGINWVKQRTGQGLEWIGEIYPRSGNTYYNEKFKDKATLTADKSSSTAYMELRSLTSEDSAVYFCARGGTYDGYYYAMDFWGQGTSVTVSS
VL: DIVLTQSPASLAVSLGQRATISCRASESVDNFGSSFLHWYQQKPGQAPKLLIYRASNLESGIPARFSGSGSRTDFTLTINPVETDDVATYYCQQVNKDPRTFGGGTKLEIK
notes: human IgG4 S228P / kappa chimeric antibody; also called chimeric antibody 035; not shown: human kappa light chain constant region (pcDNA3.4-hIgGk vector)
EC50 [1]: 1.3 nM
TOP MFI [1]: 333
IC50 [2]: 4.3 nM
TOP blocking (%) [2]: 95.9%
Blocking ratio at 66.7 nM (%) [3]: 24.3%

B6: Antibody 048 (antibody, V domains shown)
VH: EFQVQQSGPELVKPGASVKISCKASGYSFSDYNMNWLKQSTGKSLEWIGLVDPIYGTIRYNQKFKGKATLTVDQSSSTAYMQLNSLTSEDSAVYYCALITTSVRYFDYWGQGTTLTVSS
VL: DVLMTQTPLSLPVSLGDQASISCRSSQNIVHTDGNTYLEWYLQKPGQSPKLLIYKVSNRFSGVPDRFSGSGSGTDFTLKISRVEAEDLGVYYCFQGSHVPPTFGGGTKLEIK
notes: mouse hybridoma antibody
EC50 [4]: 0.05 nM
EC50 [5]: 1.19 nM
binding result [6]: no binding
IC50 [7]: 7.6 nM
TOP blocking (%) [7]: 92.9%
% competition [8]: 10%
% competition [9]: 41.7%

B8: 033c (antibody, human IgG4, V domains shown)
VH: EVQLQQSGAELVRPGASVKLSCTASDFNIKDDYIHWVKQRPEQGLEWIGWIDLENGDTEYASKFQGKATITADTSSNTAYLQLSSLTSEDTAVYYCTTKGSHWGQGTLVTVSA
VL: DVVMTQIPLSLPVSLGDQASISCRSSQSLVYSNGNTYLNWYLQKPGQSPKLLIHKVSNRFSGVPDRFSGSGSGTDFTLKISRVEAEDLGVYFCSQSTHVPYTFGGGTKLEIR
notes: human IgG4 S228P / kappa chimeric antibody; also called chimeric antibody 033; not shown: human kappa light chain constant region (pcDNA3.4-hIgGk vector)
EC50 [1]: 2.4 nM
TOP MFI [1]: 394
IC50 [2]: 3.9 nM
TOP blocking (%) [2]: 95%
Blocking ratio at 66.7 nM (%) [3]: 67.8%

Continued by falling EC50 [1], values first:

EC50 [1]: 1.4 nM
TOP MFI [1]: 337
IC50 [2]: 2.5 nM
TOP blocking (%) [2]: 95.1%
Blocking ratio at 66.7 nM (%) [3]: 33.3%
B3: 057c (antibody, human IgG4, V domains shown)
VH: B2 VH with Y27F, F64L, D66G, K67E, K74R, F111Y
VL: B2 VL with D1N, L37M, S67G, R72G, N80D
notes: human IgG4 S228P / kappa chimeric antibody; also called chimeric antibody 057; not shown: human kappa light chain constant region (pcDNA3.4-hIgGk vector)

EC50 [1]: 1.3 nM
TOP MFI [1]: 289
IC50 [2]: 4 nM
TOP blocking (%) [2]: 64.6%
Blocking ratio at 66.7 nM (%) [3]: 41.2%
B5: 048c (antibody, human IgG4, V domains shown)
VH: B6 VH
VL: B6 VL
notes: human IgG4 S228P / kappa chimeric antibody; also called chimeric antibody 048; not shown: human kappa light chain constant region (pcDNA3.4-hIgGk vector)

EC50 [1]: 1.3 nM
TOP MFI [1]: 302
IC50 [2]: 4.7 nM
TOP blocking (%) [2]: 62%
Blocking ratio at 66.7 nM (%) [3]: 40.2%
B7: 039c (antibody, human IgG4, V domains shown)
VH: EFQLQQSGPELVKPGASVKISCKASGYSFTDYNLNWVRQSNGKSLEWIGLVDPIYGTIRYNQNFKDKATLTVDQSSSTAYMQLNSLTSEDSAVYYCASIMTAVRYFDHWGQGTTLTVSS
VL: B6 VL with S10F, Q27L, T32S, R82G
notes: human IgG4 S228P / kappa chimeric antibody; also called chimeric antibody 039; not shown: human kappa light chain constant region (pcDNA3.4-hIgGk vector)

EC50 [1]: 1.1 nM
TOP MFI [1]: 346
IC50 [2]: 3.7 nM
TOP blocking (%) [2]: 96.9%
Blocking ratio at 66.7 nM (%) [3]: 39.4%
B4: 024c (antibody, human IgG4, V domains shown)
VH: EVQLQQSGPELVKPGASVKISCKASGYTFTDYYMNWVKQSHGKRLEWIGDIDPNNGGTSYNQKFKGKATLTVDKSSSSAYMDLRSLTSEDSAVYYCARAGSYYYGSSYVEYFDVWGTGTTVTVSS
VL: DIQMTQSPASLSASVGETVTITCRASGNIHNYLAWYQQKQGASPQLLVYNAKTLADGVPSRFSGSGSGTEFSLKINSLQPEDFGNYYCQHFWNTPYTFGGGTKLEIK
notes: human IgG4 S228P / kappa chimeric antibody; also called chimeric antibody 024; not shown: human kappa light chain constant region (pcDNA3.4-hIgGk vector)
